Measurements: US20110165624A1

Target: native Ocr protein (bacteriophage T7 gene 0.3 product) as produced from pMCSG7 (bacteriophage T7)
Assay: size exclusion chromatography, Superdex 75; predicted monomer 16.6 kDa, dimer 33.3 kDa

Substance “native Ocr protein (bacteriophage T7 gene 0.3 product) as produced from pMCSG7” has a calculated molecular weight on size exclusion column of 35 kDa.
